# T1: FcγRIIb extracellular domain with C-terminal His tag (human, UniProt P31994 43-217)
# T1 construct: extracellular domain; Soluble receptor expressed in FreeStyle293 cells, used as analyte in Biacore; also called FcgRIIb; 2b
# T1 sequence (looked up): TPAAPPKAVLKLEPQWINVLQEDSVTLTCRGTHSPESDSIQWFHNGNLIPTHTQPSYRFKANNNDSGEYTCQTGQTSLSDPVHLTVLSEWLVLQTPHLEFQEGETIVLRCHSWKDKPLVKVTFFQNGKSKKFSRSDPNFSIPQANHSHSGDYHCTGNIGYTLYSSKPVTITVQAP
# B1: GpH7-A5/GpH7-B3 variant S298_02A/GpL16-k0 (antibody, human IgG1, kappa)
# heavy 1: not shown
# heavy 2: not shown
# light: DIVMTQSPLSLPVTPGEPASISCQASESLVHSNRNTYLHWYLQKPGQSPQLLIYKVSNRFSGVPDRFSGSGSGTDFTLKISRVEAEDVGVYYCSQNTHVPPTFGQGTKVEIERTVAAPSVFIFPPSDEQLKSGTASVVCLLNNFYPREAKVQWKVDNALQSGNSQESVTEQDSKDSTYSLSSTLTLSKADYEKHKVYACEVTHQGLSSPVTKSFNRGEC
# notes: Heterodimerized anti-glypican-3 IgG1; mutation in the GpH7-B3 chain only; also called He Ab
# B2: GpH7-A5/GpH7-B3 variant A330_15Y/GpL16-k0 (antibody, human IgG1, kappa)
# heavy 1: not shown
# heavy 2: not shown
# light: B1 light
# notes: as for B1
# B3: GpH7-A5/GpH7-B3 variant A330_10E/GpL16-k0 (antibody, human IgG1, kappa)
# heavy 1: not shown
# heavy 2: not shown
# light: B1 light
# notes: as for B1
# B4: GpH7-A5/GpH7-B3 variant A330_06M/GpL16-k0 (antibody, human IgG1, kappa)
# heavy 1: not shown
# heavy 2: not shown
# light: B1 light
# notes: as for B1
# B5: GpH7-A5/GpH7-B3 variant A330_04F/GpL16-k0 (antibody, human IgG1, kappa)
# heavy 1: not shown
# heavy 2: not shown
# light: B1 light
# notes: as for B1
# B6: GpH7-A5/GpH7-B3 variant A330_07I/GpL16-k0 (antibody, human IgG1, kappa)
# heavy 1: not shown
# heavy 2: not shown
# light: B1 light
# notes: as for B1
# B7: GpH7-A5/GpH7-B3 variant A327_11K/GpL16-k0 (antibody, human IgG1, kappa)
# heavy 1: not shown
# heavy 2: not shown
# light: B1 light
# notes: as for B1
# B8: GpH7-A5/GpH7-B3 variant A330_03V/GpL16-k0 (antibody, human IgG1, kappa)
# heavy 1: not shown
# heavy 2: not shown
# light: B1 light
# notes: as for B1
# B9: GpH7-A5/GpH7-B3 variant A330_08L/GpL16-k0 (antibody, human IgG1, kappa)
# heavy 1: not shown
# heavy 2: not shown
# light: B1 light
# notes: as for B1
# B10: GpH7-A5/GpH7-B3 variant S337_15Y/GpL16-k0 (antibody, human IgG1, kappa)
# heavy 1: not shown
# heavy 2: not shown
# light: B1 light
# notes: one H chain altered; also called He Ab S337_15Y
# B11: GpH7-A5/GpH7-B3 variant T335_07I/GpL16-k0 (antibody, human IgG1, kappa)
# heavy 1: not shown
# heavy 2: not shown
# light: B1 light
# notes: one H chain altered; also called He Ab T335_07I
# B12: GpH7-A5/GpH7-B3 variant K326_07I/GpL16-k0 (antibody, human IgG1, kappa)
# heavy 1: not shown
# heavy 2: not shown
# light: B1 light
# notes: one H chain altered; also called He Ab K326_07I
# B13: GpH7-A5/GpH7-B3 variant T335_16H/GpL16-k0 (antibody, human IgG1, kappa)
# heavy 1: not shown
# heavy 2: not shown
# light: B1 light
# notes: one H chain altered; also called He Ab T335_16H
# B14: GpH7-A5/GpH7-B3 variant K326_08L/GpL16-k0 (antibody, human IgG1, kappa)
# heavy 1: not shown
# heavy 2: not shown
# light: B1 light
# notes: one H chain altered; also called He Ab K326_08L
# B15: GpH7-A5/GpH7-B3 variant S337_09D/GpL16-k0 (antibody, human IgG1, kappa)
# heavy 1: not shown
# heavy 2: not shown
# light: B1 light
# notes: one H chain altered; also called He Ab S337_09D
# B16: GpH7-A5/GpH7-B3 variant V266_08L/GpL16-k0 (antibody, human IgG1, kappa)
# heavy 1: not shown
# heavy 2: not shown
# light: B1 light
# notes: one H chain altered; also called He Ab V266_08L
# B17: GpH7-A5/GpH7-B3 variant I336_03V/GpL16-k0 (antibody, human IgG1, kappa)
# heavy 1: not shown
# heavy 2: not shown
# light: B1 light
# notes: one H chain altered; also called He Ab I336_03V
# B18: GpH7-A5/GpH7-B3 variant T335_19Q/GpL16-k0 (antibody, human IgG1, kappa)
# heavy 1: not shown
# heavy 2: not shown
# light: B1 light
# notes: one H chain altered; also called He Ab T335_19Q
# B19: GpH7-A5/GpH7-B3 variant S337_10E/GpL16-k0 (antibody, human IgG1, kappa)
# heavy 1: not shown
# heavy 2: not shown
# light: B1 light
# notes: one H chain altered; also called He Ab S337_10E
# B20: GpH7-A5/GpH7-B3 variant I336_18N/GpL16-k0 (antibody, human IgG1, kappa)
# heavy 1: not shown
# heavy 2: not shown
# light: B1 light
# notes: one H chain altered; also called He Ab I336_18N
# B21: GpH7-A5/GpH7-B3 variant H268_02A/GpL16-k0 (antibody, human IgG1, kappa)
# heavy 1: not shown
# heavy 2: not shown
# light: B1 light
# notes: one H chain altered; also called He Ab H268_02A
# B22: GpH7-A5/GpH7-B3 variant S337_20W/GpL16-k0 (antibody, human IgG1, kappa)
# heavy 1: not shown
# heavy 2: not shown
# light: B1 light
# notes: one H chain altered; also called He Ab S337_20W
# B23: GpH7-A5/GpH7-B3 variant S324_15Y/GpL16-k0 (antibody, human IgG1, kappa)
# heavy 1: not shown
# heavy 2: not shown
# light: B1 light
# notes: one H chain altered; also called He Ab S324_15Y
# B24: GpH7-A5/GpH7-B3 variant E333_09D/GpL16-k0 (antibody, human IgG1, kappa)
# heavy 1: not shown
# heavy 2: not shown
# light: B1 light
# notes: one H chain altered; also called He Ab E333_09D
# B25: GpH7-A5/GpH7-B3 variant S267_09D/GpL16-k0 (antibody, human IgG1, kappa)
# heavy 1: not shown
# heavy 2: not shown
# light: B1 light
# notes: one H chain altered; also called He Ab S267_09D
# B26: GpH7-A5/GpH7-B3 variant K334_09D/GpL16-k0 (antibody, human IgG1, kappa)
# heavy 1: not shown
# heavy 2: not shown
# light: B1 light
# notes: one H chain altered; also called He Ab K334_09D
# B27: GpH7-A5/GpH7-B3 variant T335_13S/GpL16-k0 (antibody, human IgG1, kappa)
# heavy 1: not shown
# heavy 2: not shown
# light: B1 light
# notes: one H chain altered; also called He Ab T335_13S
# B28: GpH7-A5/GpH7-B3 variant T335_15Y/GpL16-k0 (antibody, human IgG1, kappa)
# heavy 1: not shown
# heavy 2: not shown
# light: B1 light
# notes: one H chain altered; also called He Ab T335_15Y
# B29: GpH7-A5/GpH7-B3 variant Q295_14T/GpL16-k0 (antibody, human IgG1, kappa)
# heavy 1: not shown
# heavy 2: not shown
# light: B1 light
# notes: one H chain altered; also called He Ab Q295_14T
# B30: GpH7-A5/GpH7-B3 variant S324_16H/GpL16-k0 (antibody, human IgG1, kappa)
# heavy 1: not shown
# heavy 2: not shown
# light: B1 light
# notes: one H chain altered; also called He Ab S324_16H
# B31: GpH7-A5/GpH7-B3 variant T335_20W/GpL16-k0 (antibody, human IgG1, kappa)
# heavy 1: not shown
# heavy 2: not shown
# light: B1 light
# notes: one H chain altered; also called He Ab T335_20W
# B32: GpH7-A5/GpH7-B3 variant S298_14T/GpL16-k0 (antibody, human IgG1, kappa)
# heavy 1: not shown
# heavy 2: not shown
# light: B1 light
# notes: one H chain altered; also called He Ab S298_14T
# B33: GpH7-A5/GpH7-B3 variant I332_01G/GpL16-k0 (antibody, human IgG1, kappa)
# heavy 1: not shown
# heavy 2: not shown
# light: B1 light
# notes: one H chain altered; also called He Ab I332_01G
# B34: GpH7-A5/GpH7-B3 variant S267_02A/GpL16-k0 (antibody, human IgG1, kappa)
# heavy 1: not shown
# heavy 2: not shown
# light: B1 light
# notes: one H chain altered; also called He Ab S267_02A
# B35: GpH7-A5/GpH7-B3 variant T335_10E/GpL16-k0 (antibody, human IgG1, kappa)
# heavy 1: not shown
# heavy 2: not shown
# light: B1 light
# notes: one H chain altered; also called He Ab T335_10E
# B36: GpH7-A5/GpH7-B3 variant S337_18N/GpL16-k0 (antibody, human IgG1, kappa)
# heavy 1: not shown
# heavy 2: not shown
# light: B1 light
# notes: one H chain altered; also called He Ab S337_18N
# B37: GpH7-A5/GpH7-B3 variant K334_01G/GpL16-k0 (antibody, human IgG1, kappa)
# heavy 1: not shown
# heavy 2: not shown
# light: B1 light
# notes: one H chain altered; also called He Ab K334_01G
# B38: GpH7-A5/GpH7-B3 variant I336_02A/GpL16-k0 (antibody, human IgG1, kappa)
# heavy 1: not shown
# heavy 2: not shown
# light: B1 light
# notes: one H chain altered; also called He Ab I336_02A
# B39: GpH7-A5/GpH7-B3 variant I336_06M/GpL16-k0 (antibody, human IgG1, kappa)
# heavy 1: not shown
# heavy 2: not shown
# light: B1 light
# notes: one H chain altered; also called He Ab I336_06M
# Molecular target: T1, FcγRIIb extracellular domain with …
# Assay: SPR (Biacore), antibody captured on antigen peptide chip, FcγR as analyte; GpH7-A5/GpH7-B3/GpL16-k0 = 100
# Protocol: (§1) The heterodimerized antibodies He Abs in which one of the H chains was introduced with an alteration were assayed for their binding activities to each activating FcγR and inhibitory FcγR according to the method described in Example 4. […] The activating FcγRs in FIGS. 26, 27, 28, and 29 are FcγRIa, FcγRIIa (R), FcγRIIa (H), and FcγRIIIa, respectively.
# (§2) Analysis of interaction between objective antibody and the FcγR was carried out using Biacore T100 (GE Healthcare). HBS-EP+ (GE Healthcare) was used as the running buffer, and the measurement temperature was set to 25° C. Chips produced by immobilizing the antigen peptide by the amine coupling method to a Series S Sencor Chip CM5 (GE Healthcare), or alternatively, chips produced by allowing preliminarily biotinylated antigen peptides to interact with and immobilize onto a Series S Sensor Chip SA (certified) (GE Healthcare) were used. Antibodies of interest were captured onto an antigen peptide-immobilized chip, and allowed to interact to each FcγR diluted with running buffer. To regenerate and repeatedly use the chip, the antibodies captured on the chip were washed off by reacting 10 mM glycine-HCl, pH 1.5.
row,He/Con_2b (relative binding activity),Binder
1,73.4 % of control,B1
2,95 % of control,B2
3,70.1 % of control,B3
4,80.5 % of control,B4
5,92.8 % of control,B5
6,67.1 % of control,B6
7,12.5 % of control,B7
8,52.4 % of control,B8
9,70.5 % of control,B9

# Molecular target: T2, FcγRIIIa extracellular domain with C-terminal His tag (human, UniProt P08637 17-208)
# T2 construct: extracellular domain; also called FcgRIIIa; 3a
# Assay: as above
# Protocol: as §1, §2
# T2 sequence (P08637 17-208): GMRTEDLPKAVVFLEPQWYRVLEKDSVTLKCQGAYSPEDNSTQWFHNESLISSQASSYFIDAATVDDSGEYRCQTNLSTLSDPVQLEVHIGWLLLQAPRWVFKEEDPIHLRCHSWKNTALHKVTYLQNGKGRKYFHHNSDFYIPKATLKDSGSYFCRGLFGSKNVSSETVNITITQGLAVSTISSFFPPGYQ
row,He/Con_3a (relative binding activity),Binder
1,160 % of control,B1
2,125 % of control,B2
3,84.6 % of control,B3
4,142 % of control,B4
5,147 % of control,B5
6,103 % of control,B6
7,31.7 % of control,B7
8,101 % of control,B8
9,124 % of control,B9

# Molecular target: FcγRIIIa extracellular domain with C-terminal His tag (human, UniProt P08637 17-208)
# Assay: SPR (Biacore), one H chain altered; HeCon Ab GpH7-A5/GpH7-B3/GpL16-k0 = 100
# Target sequence in this assay (P08637 17-208): as above
row,He/Con_3a,Binder
1,102%,B10
2,107%,B11
3,139%,B12
4,104%,B13
5,114%,B14
6,110%,B15
7,118%,B16
8,112%,B17
9,102%,B18
10,105%,B19
11,104%,B20
12,122%,B21
13,101%,B22
14,101%,B23
15,112%,B24
16,181%,B25
17,160%,B26
18,105%,B27
19,104%,B28
20,115%,B29
21,104%,B30
22,102%,B31
23,113%,B32
24,111%,B33
25,150%,B34
26,107%,B35
27,104%,B36
28,121%,B37
29,111%,B38
30,109%,B39

# Molecular target: T2, FcγRIIIa extracellular domain with …
# Assay: SPR (Biacore); He/Con_3a divided by He/Con_2b (FcγRIIIa against FcγRIIb)
# Protocol: as §1, §2
row,He_3a/2b (IIIa/IIb),Binder
1,2.18 ratio,B1
2,1.32 ratio,B2
3,1.21 ratio,B3
4,1.76 ratio,B4
5,1.59 ratio,B5
6,1.53 ratio,B6
7,2.53 ratio,B7
8,1.93 ratio,B8
9,1.77 ratio,B9

# — patent US20150344570A1 (published 2015)
